Assay results published in patent publication US20170000909A1, “ENZYME DIRECTED ASSEMBLY OF PARTICLE THERANOSTICS” (The Regents of the University of California, priority 2011, published 2017).
Where no end group is shown, it is not given here.

Biological target: T1, MMP-9 (Homo sapiens, UniProt P14780)
T1 construct: purchased Calbiochem
Test: MMP-9 cleavage efficiency assay (RP-HPLC)
Type: biochemical
Details: 120 μM, MMP-9 24 hrs, disappearance of peak at 29 minutes
Procedure: To 5 μL of enzyme was added 0.4 μL of a 24 mM π-aminophenyl mercuric acetate solution in freshly prepared 0.1 M NaOH. The enzyme solution was heated at 37° C. for 2 hrs prior to use.
120 μM of M1 (with respect to peptide) and 120 μM of Peptide-1 were treated with MMP-9 (100 μU, 1.25 μL) for 24 hrs. The control was performed using 120 μM of Peptide-1 without treatment with MMP-9. These samples were then analyzed by RP-HPLC following inactivation of MMP-9 at 65° C. for 20 mins (FIG. 21A). Peak A is the intact, full length Peptide-1 without treatment with MMP-9, and Peak B is the large fragment of Peptide-1 cleaved by MMP-9 as confirmed by MALDI-MS shown in FIG. 21B, left.

T1 sequence (P14780 107-707 limits assumed): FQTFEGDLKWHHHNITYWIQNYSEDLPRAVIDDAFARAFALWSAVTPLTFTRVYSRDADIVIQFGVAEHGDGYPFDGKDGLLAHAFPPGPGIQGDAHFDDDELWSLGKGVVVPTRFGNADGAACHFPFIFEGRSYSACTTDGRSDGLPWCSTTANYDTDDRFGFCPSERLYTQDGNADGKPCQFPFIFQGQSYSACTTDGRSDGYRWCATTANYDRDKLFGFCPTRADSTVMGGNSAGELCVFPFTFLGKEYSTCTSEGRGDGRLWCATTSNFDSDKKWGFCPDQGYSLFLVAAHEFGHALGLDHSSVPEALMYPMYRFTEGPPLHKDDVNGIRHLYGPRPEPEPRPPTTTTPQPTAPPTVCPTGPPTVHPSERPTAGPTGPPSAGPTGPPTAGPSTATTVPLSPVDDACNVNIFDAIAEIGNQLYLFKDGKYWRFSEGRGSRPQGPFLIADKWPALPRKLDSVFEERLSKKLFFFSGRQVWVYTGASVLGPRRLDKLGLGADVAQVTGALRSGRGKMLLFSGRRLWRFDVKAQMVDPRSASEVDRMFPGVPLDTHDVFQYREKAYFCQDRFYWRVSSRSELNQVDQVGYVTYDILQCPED

GPLGLAGKWAAAAKAAAAK [Peptide-1]
MMP-9 cleavage efficiency: quantitative
